Experimental data: patent US20110171126A1

Experiments:
[1] = molecular target: HLA-DR as expressed by cancer cell lines (human); assay: flow cytometry, surface, CAG cells + IFNγ
[2] = molecular target: HLA-DR as expressed by cancer cell lines (human); assay: cell-based or functional assay
[3] = molecular target: HLA-DR as expressed by cancer cell lines (human); assay: flow cytometry, permeabilized (cytoplasmic), U118 cells
[4] = molecular target: HLA-DR as expressed by cancer cell lines (human); assay: flow cytometry, surface, RL cells + IFNγ
[5] = molecular target: HLA-DR as expressed by cancer cell lines (human); assay: flow cytometry, permeabilized (cytoplasmic), KMS11 cells + IFNγ
[6] = molecular target: HLA-DR as expressed by cancer cell lines (human); assay: flow cytometry, surface, BxPC-3 cells
[7] = molecular target: HLA-DR as expressed by cancer cell lines (human); assay: flow cytometry, surface, BxPC-3 cells + IFNγ
[8] = molecular target: HLA-DR as expressed by cancer cell lines (human); assay: flow cytometry, surface, FSCCL cells + IFNγ
[9] = molecular target: HLA-DR as expressed by cancer cell lines (human); assay: flow cytometry, permeabilized (cytoplasmic), FSCCL cells
[10] = molecular target: HLA-DR as expressed by cancer cell lines (human); assay: flow cytometry, permeabilized (cytoplasmic), LS174T cells
[11] = molecular target: HLA-DR as expressed by cancer cell lines (human); assay: flow cytometry, surface, Moser cells + IFNγ
[12] = molecular target: HLA-DR as expressed by cancer cell lines (human); assay: flow cytometry, permeabilized (cytoplasmic), U87 cells
[13] = molecular target: HLA-DR as expressed by cancer cell lines (human); assay: flow cytometry, surface, Lovo cells
[14] = molecular target: HLA-DR as expressed by cancer cell lines (human); assay: flow cytometry, surface, LS174T cells
[15] = molecular target: HLA-DR as expressed by cancer cell lines (human); assay: flow cytometry, permeabilized (cytoplasmic), Aspc-1 cells
[16] = molecular target: HLA-DR as expressed by cancer cell lines (human); assay: flow cytometry, permeabilized (cytoplasmic), Lovo cells + IFNγ
[17] = molecular target: HLA-DR as expressed by cancer cell lines (human); assay: flow cytometry, permeabilized (cytoplasmic), RL cells + IFNγ
[18] = molecular target: HLA-DR as expressed by cancer cell lines (human); assay: flow cytometry, surface, Aspc-1 cells + IFNγ
[19] = molecular target: HLA-DR as expressed by cancer cell lines (human); assay: flow cytometry, surface, Panc-1 cells + IFNγ
[20] = molecular target: HLA-DR as expressed by cancer cell lines (human); assay: flow cytometry, permeabilized (cytoplasmic), RL cells
[21] = molecular target: HLA-DR as expressed by cancer cell lines (human); assay: flow cytometry, permeabilized (cytoplasmic), U87 cells + IFNγ
[22] = molecular target: HLA-DR as expressed by cancer cell lines (human); assay: flow cytometry, surface, LS174T cells + IFNγ
[23] = molecular target: HLA-DR as expressed by cancer cell lines (human); assay: flow cytometry, surface, FSCCL cells
[24] = molecular target: HLA-DR as expressed by cancer cell lines (human); assay: flow cytometry, permeabilized (cytoplasmic), TU118 cells
[25] = molecular target: HLA-DR as expressed by cancer cell lines (human); assay: flow cytometry, surface, Lovo cells + IFNγ
[26] = molecular target: HLA-DR as expressed by cancer cell lines (human); assay: flow cytometry, permeabilized (cytoplasmic), Panc-1 cells + IFNγ
[27] = molecular target: HLA-DR as expressed by cancer cell lines (human); assay: flow cytometry, permeabilized (cytoplasmic), Capan-1 cells
[28] = molecular target: HLA-DR as expressed by cancer cell lines (human); assay: flow cytometry, permeabilized (cytoplasmic), FSCCL cells + IFNγ
[29] = molecular target: HLA-DR as expressed by cancer cell lines (human); assay: flow cytometry, permeabilized (cytoplasmic), U118 cells + IFNγ
[30] = molecular target: HLA-DR as expressed by cancer cell lines (human); assay: flow cytometry, surface, U87 cells
[31] = molecular target: HLA-DR as expressed by cancer cell lines (human); assay: flow cytometry, surface, CAG cells
[32] = molecular target: HLA-DR as expressed by cancer cell lines (human); assay: flow cytometry, surface, TU118 cells + IFNγ
[33] = molecular target: HLA-DR as expressed by cancer cell lines (human); assay: flow cytometry, surface, Capan cells + IFNγ
[34] = molecular target: HLA-DR as expressed by cancer cell lines (human); assay: flow cytometry, permeabilized (cytoplasmic), Lovo cells
[35] = molecular target: HLA-DR as expressed by cancer cell lines (human); assay: flow cytometry, surface, RL cells
[36] = molecular target: HLA-DR as expressed by cancer cell lines (human); assay: flow cytometry, permeabilized (cytoplasmic), CAG cells
[37] = molecular target: HLA-DR as expressed by cancer cell lines (human); assay: flow cytometry, permeabilized (cytoplasmic), Capan cells + IFNγ
[38] = molecular target: HLA-DR as expressed by cancer cell lines (human); assay: flow cytometry, surface, TU118 cells
[39] = molecular target: HLA-DR as expressed by cancer cell lines (human); assay: flow cytometry, permeabilized (cytoplasmic), Panc-1 cells
[40] = molecular target: HLA-DR as expressed by cancer cell lines (human); assay: flow cytometry, surface, Capan-1 cells
[41] = molecular target: HLA-DR as expressed by cancer cell lines (human); assay: flow cytometry, permeabilized (cytoplasmic), CAG cells + IFNγ
[42] = molecular target: HLA-DR as expressed by cancer cell lines (human); assay: flow cytometry, surface, U118 cells
[43] = molecular target: HLA-DR as expressed by cancer cell lines (human); assay: flow cytometry, surface, HT29 cells
[44] = molecular target: HLA-DR as expressed by cancer cell lines (human); assay: flow cytometry, surface, U87 cells + IFNγ
[45] = molecular target: HLA-DR as expressed by cancer cell lines (human); assay: flow cytometry, permeabilized (cytoplasmic), HT29 cells + IFNγ
[46] = molecular target: HLA-DR as expressed by cancer cell lines (human); assay: flow cytometry, surface, Moser cells
[47] = molecular target: HLA-DR as expressed by cancer cell lines (human); assay: flow cytometry, surface, KMS11 cells
[48] = molecular target: HLA-DR as expressed by cancer cell lines (human); assay: flow cytometry, permeabilized (cytoplasmic), Aspc-1 cells + IFNγ
[49] = molecular target: HLA-DR as expressed by cancer cell lines (human); assay: flow cytometry, permeabilized (cytoplasmic), HT29 cells
[50] = molecular target: HLA-DR as expressed by cancer cell lines (human); assay: flow cytometry, surface, KMS11 cells + IFNγ
[51] = molecular target: HLA-DR as expressed by cancer cell lines (human); assay: flow cytometry, permeabilized (cytoplasmic), LS174T cells + IFNγ
[52] = molecular target: HLA-DR as expressed by cancer cell lines (human); assay: flow cytometry, permeabilized (cytoplasmic), TU118 cells + IFNγ
[53] = molecular target: HLA-DR as expressed by cancer cell lines (human); assay: flow cytometry, permeabilized (cytoplasmic), KMS11 cells
[54] = molecular target: HLA-DR as expressed by cancer cell lines (human); assay: flow cytometry, permeabilized (cytoplasmic), Moser cells
[55] = molecular target: HLA-DR as expressed by cancer cell lines (human); assay: flow cytometry, permeabilized (cytoplasmic), BxPC-3 cells + IFNγ
[56] = molecular target: HLA-DR as expressed by cancer cell lines (human); assay: flow cytometry, permeabilized (cytoplasmic), BxPC-3 cells
[57] = molecular target: HLA-DR as expressed by cancer cell lines (human); assay: flow cytometry, surface, Aspc-1 cells
[58] = molecular target: HLA-DR as expressed by cancer cell lines (human); assay: flow cytometry, surface, HT29 cells + IFNγ
[59] = molecular target: HLA-DR as expressed by cancer cell lines (human); assay: flow cytometry, permeabilized (cytoplasmic), Moser cells + IFNγ
[60] = molecular target: HLA-DR as expressed by cancer cell lines (human); assay: flow cytometry, surface, Panc-1 cells
[61] = molecular target: HLA-DR as expressed by cancer cell lines (human); assay: flow cytometry, surface, U118 cells + IFNγ

B1: hL243γ4P (humanized anti-HLA-DR antibody) (antibody, from a related filing, V domains shown)
VH: QVQLQQSGSELKKPGASVKVSCKASGFTFTNYGMNWVKQAPGQGLKWMGWINTYTREPTYADDFKGRFAFSLDTSVSTAYLQISSLKADDTAVYFCARDITAVVPTGFDYWGQGSLVTVSS
VL: DIQLTQSPSSLSASVGDRVTITCRASENIYSNLAWYRQKPGKAPKLLVFAASNLADGVPSRFSGSGSGTDYTFTISSLQPEDIATYYCQHFWTTPWAFGGGTKLQIKR
With B1 the fluorescence intensity (flow cytometry) [1] was 1810, the increased killing in vitro after IFN-γ exposure, WSU-FSCCL NHL cells [2] was 58% and the fluorescence intensity (flow cytometry) [3] was 24.6. For the same binder, the fluorescence intensity (flow cytometry) [4] was 862, the fluorescence intensity (flow cytometry) [5] was 927 and the fluorescence intensity (flow cytometry) [6] was 2.3. The fluorescence intensity (flow cytometry) [7] was 43.8, the fluorescence intensity (flow cytometry) [8] was 1610 and the fluorescence intensity (flow cytometry) [9] was 1470. For the same binder, the fluorescence intensity (flow cytometry) [10] was 23.4, the fluorescence intensity (flow cytometry) [11] was 8.5 and the fluorescence intensity (flow cytometry) [12] was 102. The fluorescence intensity (flow cytometry) [13] was 7.3, the fluorescence intensity (flow cytometry) [14] was 5.3 and the fluorescence intensity (flow cytometry) [15] was 11. It also gave a fluorescence intensity (flow cytometry) [16] of 989, a fluorescence intensity (flow cytometry) [17] of 1180 and a fluorescence intensity (flow cytometry) [18] of 15.2. For the same binder, the fluorescence intensity (flow cytometry) [19] was 4.7, the fluorescence intensity (flow cytometry) [20] was 1060 and the fluorescence intensity (flow cytometry) [21] was 429. It also gave a fluorescence intensity (flow cytometry) [22] of 4.7, a fluorescence intensity (flow cytometry) [23] of 1090 and a fluorescence intensity (flow cytometry) [24] of 23.6. For the same binder, the fluorescence intensity (flow cytometry) [25] was 276, the fluorescence intensity (flow cytometry) [26] was 64.1 and the fluorescence intensity (flow cytometry) [27] was 11.6. The fluorescence intensity (flow cytometry) [28] was 2520, the fluorescence intensity (flow cytometry) [29] was 352 and the fluorescence intensity (flow cytometry) [30] was 41.9. For the same binder, the fluorescence intensity (flow cytometry) [31] was 1930, the fluorescence intensity (flow cytometry) [32] was 93.5 and the fluorescence intensity (flow cytometry) [33] was 66.2. It also gave a fluorescence intensity (flow cytometry) [34] of 32.5, a fluorescence intensity (flow cytometry) [35] of 750 and a fluorescence intensity (flow cytometry) [36] of 2320. The fluorescence intensity (flow cytometry) [37] was 253, the fluorescence intensity (flow cytometry) [38] was 5.08 and the fluorescence intensity (flow cytometry) [39] was 22.7. For the same binder, the fluorescence intensity (flow cytometry) [40] was 5.5, the fluorescence intensity (flow cytometry) [41] was 2420 and the fluorescence intensity (flow cytometry) [42] was 6.1. For the same binder, the fluorescence intensity (flow cytometry) [43] was 3.3, the fluorescence intensity (flow cytometry) [44] was 172 and the fluorescence intensity (flow cytometry) [45] was 638. It also gave a fluorescence intensity (flow cytometry) [46] of 4, a fluorescence intensity (flow cytometry) [47] of 677 and a fluorescence intensity (flow cytometry) [48] of 73.6. It also gave a fluorescence intensity (flow cytometry) [49] of 9.1, a fluorescence intensity (flow cytometry) [50] of 665 and a fluorescence intensity (flow cytometry) [51] of 42.3. The fluorescence intensity (flow cytometry) [52] was 215, the fluorescence intensity (flow cytometry) [53] was 879 and the fluorescence intensity (flow cytometry) [54] was 18.2. The fluorescence intensity (flow cytometry) [55] was 130, the fluorescence intensity (flow cytometry) [56] was 14.2 and the fluorescence intensity (flow cytometry) [57] was 3.2. It also gave a fluorescence intensity (flow cytometry) [58] of 298, a fluorescence intensity (flow cytometry) [59] of 40.5 and a fluorescence intensity (flow cytometry) [60] of 4.3. For the same binder, the fluorescence intensity (flow cytometry) [61] was 197.
